{"source": "patent US7572612B2", "about": "“Method of production of para-hydroxycinnamic acid using a thermostable TAL enzyme” (E.I. du Pont de Nemours and Company, priority 2006, dated 2009)", "key": {"[1]": {"assay": "Conversion of tyrosine to pHCA in 3 L Applikon BioReactors", "assay_type": "cell-based, E. coli", "procedure": "The following experiment was performed in an Applikon BioReactor (9.0 liter working volume) where pH and temperature of the reaction were controlled. Both strains DPD5154 and DPD5124 were tested. The E. coli DPD5154 (PcTAL) cells were produced by the protocol described in Example 6, with a final cell density of […]. In the case of E. coli DPD5124 (RgTAL) the inoculum was grown in a 2.0 L shake flask containing 500 ml of the following medium (in grams per liter) KH2PO4 (2.0 g/L), K2HPO4 (13.0 g/L), (NH4)2HPO4 […]), MgSO4.7H2O (1.0 g/L), yeast extract (2.0 g/L), Ferric Ammonium Citrate (0.1 g/L). The pH was adjusted to 7.0 and the medium steam sterilized. Glucose (30.0 g/L) and ampicillin (50 mg/L) were added post-sterilization. The culture was grown in 2 L flasks with 500 mL medium, at 35° C. to about OD550 of 2.0 and then the entire contents was used to inoculate the fermentor. The fermentor was controlled at 36° C., pH 6.8, with the dissolved oxygen (DO) tension of 25% controlled with cascade of agitation and air flow with agitation from 400 to 1000 rpm and airflow from 2 to 16 SLPM. The overhead pressure was 0.5. When the glucose level reached below 4.0 g/L a glucose feed program with 60% glucose (w/w) was initiated, consisting of: first 4 h at 0.36 g/min, next 12 h at 0.73 g/min and to the end of run at 0.56 g/min. When the culture reached an OD550 of 35, arabinose was added to final concentration of 0.5 g/L The fermentation was terminated 20 h after arabinose addition. The final cell density in the fermentation broth was an OD550 of 90 and the final volume was about 9 liter. The g dcw/L was determined assuming that 1.0 OD550 contained 0.33 g dcw/L:=30 g dcw/L.\nThe cells were harvested by centrifugation and stored as a frozen paste at −80° C. until use. Before use, the cell paste was thawed and suspended in the saline solution to about 10% w/v. The cell dry weight concentration was calculated from [cells wet weight]×[% solids] where [% solids] was determined after drying the cells in a vacuum oven, at 90° C. for >16 h.\nThe tyrosine used was AR grade (J. T. Baker). It was suspended in distilled, deionized water at 33% w/w concentration, homogenized in a blender and added to about 50 g/L final concentration. Reactions were conducted in 3 L Applikon BioReactors (Applikon, De Brauwweg 13, The Netherlands), with a 1-2 L working volume. The set points for the control systems were pH 9.9 with automatic addition of NaOH 25% w/v with agitation at 400 rpm. The bioconversion was typically done by adding the tyrosine suspension to the appropriate concentration, adjusting the pH and temperature to the determined set point, adding the cell suspension to the appropriate concentration, and DI water to the final volume."}, "[2]": {"assay": "Kinetic parameters of the PcTAL enzyme for tyrosine", "assay_type": "biochemical", "settings": "from kcat/KM, 45° C., 100 mM CAPS pH 9.5", "procedure": "The kinetic parameters of the PcTAL enzyme for tyrosine and phenylalanine were determined at 45° C., in 100 mM CAPS, pH 9.5 buffer. The increase of TAL and PAL activities with increasing substrate concentrations followed the typical Michaelis-Menton equation. The kcat of the enzyme was 1.3 S^−1 for tyrosine, and 3.3 S^−1 for phenylalanine. The KM was 44 μM for tyrosine and 161 μM for phenylalanine. The kcat/KM value was slightly higher for tyrosine (3.0 M^−1 S^−1) than for phenylalanine (2.1 M^−1 S^−1), indicating the enzyme's slight preference for tyrosine (PAL/TAL ratio of 0.7). […] The substrate specificity of the PcTAL enzyme is therefore similar to other known fungal PAL/TAL enzymes, such as that from R. glutinis, with dual specificity for tyrosine and phenylalanine."}, "[3]": {"assay": "Whole cell TAL activity temperature profile", "assay_type": "cell-based, E. coli", "procedure": "A fermentation run was performed as in Example 6 for strain DPD5154. The TAL activity of the strain was measured in a cell-based assay at different temperatures. The fermentation cell paste was resuspended in water, and diluted to OD600 of 3.0. Formation of pHCA was monitored in a 1.0 ml reaction in a UV grade disposable cuvette (VWR) for three minutes at λ315 nm, 35° C. with 0.03 OD600 of DPD5154 cells, in 100 mM CAPS, pH10 with 10 mM tyrosine. The pH value of the CAPS buffer was adjusted according to the corresponding assay temperature, which was varied from 25° C. to 60° C. The TAL activity was calculated using the following equation based on the assumption that 1.0 OD600 of E. coli cells is equivalent to 0.33 g/L dry cell weight (dcw). The extinction coefficient of pHCA at pH 10 at 315 nm had previously been experimentally determined to be 16,800 M^−1 cm^−1. One unit of enzyme activity is defined as the formation of 1.0 μM of pHCA product per minute reaction. The total TAL Activity (μM/min)=Initial Slope (/min)×[1,000,000 (μM/M)/16,800 M^−1 cm^−1]=Slope (/min)×59.52 (μM)"}, "[4]": {"settings": "30 C., cell conc 6 g/L, reaction time 19 h"}, "[5]": {"settings": "35 C., cell conc 6 g/L, reaction time 15 h"}, "[6]": {"settings": "40 C., cell conc 6 g/L, reaction time 7 h"}, "[7]": {"settings": "43 C., cell conc 6 g/L, reaction time 6 h"}, "[8]": {"settings": "45 C., cell conc 2 g/L, reaction time 19 h"}, "[9]": {"settings": "45 C., cell conc 4 g/L, reaction time 10 h"}, "[10]": {"settings": "45 C., cell conc 6 g/L, reaction time 6 h"}, "[11]": {"settings": "48 C., cell conc 6 g/L, reaction time 6 h"}}, "data": [{"molecule": "PcTAL: thermostable tyrosine ammonia lyase (PAL/TAL) enzyme from Phanerochaete chrysosporium, SEQ ID NO:1 (protein, listed as Phanerochaete chrysosporium) MPSRIDYYTSSGNGYAQSRKSSAIYPASASTGHAAPSTERKPELLDKFVEAYDELQSYREGKPVIVDGHNLSIPAVAATARFGAAVVLDENPETHERVLQSRRVIVDKVSTQRSVYGVSTGFGGSADTRTSDPLQLGHALLQHQHVGVLPTQTESPLPALPLGDPLATTSMPEAWVRGAILIRMNSLIRGHSGVRWELIEKMGELLRENITPLVPLRGSISASGDLSPLSYIAGTLIGSPAIRVFDGPASYGARRILPSNIALANHGVAPIPLSSKEHLGILNGTAFSASVGALALNEAVHLSLLAQVCTAMGTEAMIGAVGSFDAFIHDTARPHPGQVEVARNVRTLLEDSQMAVKAEDEVHIAEDEGELRQDRYPLRTAAQFLGPQIEDILSAHETVTLECNSTTDNPLIDGETGTVHHGGNFQAMAVTNAMEKTRLAIHHIGKLLFAQATELINPMMNRGLPPNLAATDPSHNYFAKGVDIHLAAYVGELGFLASPVSSHIQSAEMHNQAVNSLALVSARYTISALDVLSLLTAAYLYVLCQALDLRAMHNDLQSSLSAIVRELLPKHFPSAAKRADALLPILERTIFRALNSSSSADCKARMVSVAASTTTPLVDFLSADAALASELANITAFRTELATRAADALTTLRTQYLEGARGAAPASKYLGKTRPVYEFVRVTLNVPMHGRENLHNFEMGPGVEDGIIGNNISTIYEAIRDGKMQNVVMQLVKSIKA", "values": [{"measurement": "Prod g/L-h", "setting": "[1]; [4]", "result": 2.20, "unit": "g/L-h"}, {"measurement": "Prod g/g-h", "setting": "[1]; [4]", "result": 0.37, "unit": "g/g-h"}, {"measurement": "Prod g/L-h", "setting": "[1]; [5]", "result": 2.79, "unit": "g/L-h"}, {"measurement": "Prod g/g-h", "setting": "[1]; [5]", "result": 0.46, "unit": "g/g-h"}, {"measurement": "Prod g/L-h", "setting": "[1]; [6]", "result": 5.94, "unit": "g/L-h"}, {"measurement": "Prod g/g-h", "setting": "[1]; [6]", "result": 0.99, "unit": "g/g-h"}, {"measurement": "Prod g/L-h", "setting": "[1]; [7]", "result": 6.90, "unit": "g/L-h"}, {"measurement": "Prod g/g-h", "setting": "[1]; [7]", "result": 1.15, "unit": "g/g-h"}, {"measurement": "Prod g/L-h", "setting": "[1]; [8]", "result": 2.22, "unit": "g/L-h"}, {"measurement": "Prod g/g-h", "setting": "[1]; [8]", "result": 1.11, "unit": "g/g-h"}, {"measurement": "Prod g/L-h", "setting": "[1]; [9]", "result": 4.18, "unit": "g/L-h"}, {"measurement": "Prod g/g-h", "setting": "[1]; [9]", "result": 1.05, "unit": "g/g-h"}, {"measurement": "Prod g/L-h", "setting": "[1]; [10]", "result": 6.83, "unit": "g/L-h"}, {"measurement": "Prod g/g-h", "setting": "[1]; [10]", "result": 1.14, "unit": "g/g-h"}, {"measurement": "Prod g/L-h", "setting": "[1]; [11]", "result": 7.00, "unit": "g/L-h"}, {"measurement": "Prod g/g-h", "setting": "[1]; [11]", "result": 1.17, "unit": "g/g-h"}, {"measurement": "PAL/TAL ratio", "setting": "[2]", "result": 0.7}, {"measurement": "activity at 60° C. relative to that at 25° C. in whole cells", "setting": "[3]", "result": "about 6 fold"}]}]}
